Laboratory results as given in US20170128490A1.

Target: RGD-recognizing receptors (on monocytes)
Assay: cell-based or functional assay

long-duration monocyte-platelet interactions (video analysis, flow): 44 % decrease
Binder: RGDS [small RGD peptides, containing the amino-acid sequence Arg-Gly-Asp-Ser]
